Patent US20030145347A1

Key:
Assay in all cases: cell-based or functional assay
[1] = biological target: rice thioredoxin with S-tag (recombinant, expressed in E. coli from pNOV4113) (rice)
[2] = biological target: soybean thioredoxin as labelled in the 4th table (with or without S-tag not told) (soybean)
[3] = biological target: wheat thioredoxin with S-tag (recombinant, expressed in E. coli from pNOV4114) (wheat (T. aestivium [sic]))

Sequence of E. coli thioredoxin reductase (T-7915, Sigma, St. Louis, Mo.) (P0A9P4 2-321 limits assumed): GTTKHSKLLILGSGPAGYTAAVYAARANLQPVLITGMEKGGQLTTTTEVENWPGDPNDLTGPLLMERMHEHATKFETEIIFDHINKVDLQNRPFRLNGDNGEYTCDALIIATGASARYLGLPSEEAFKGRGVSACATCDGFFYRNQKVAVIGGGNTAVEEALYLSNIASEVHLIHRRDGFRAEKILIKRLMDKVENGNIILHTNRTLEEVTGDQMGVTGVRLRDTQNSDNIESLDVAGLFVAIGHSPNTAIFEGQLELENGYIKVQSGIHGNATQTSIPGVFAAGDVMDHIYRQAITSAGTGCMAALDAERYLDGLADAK

Substance | change in A412 over 4 min, NADPH thioredoxin reductase DTNB assay; 30 ul (about 15 ug) rice thioredoxin, 1.5 ul (about 0.5 ug) Arabidopsis reductase [1] | change in A412 over 4 min, NADPH thioredoxin reductase DTNB assay; 30 ul (about 12 ug) soybean thioredoxin, 1.5 ul (about 0.5 ug) Arabidopsis reductase [2] | change in A412 over 4 min, NADPH thioredoxin reductase DTNB assay; 30 ul (about 0.6 ug) wheat thioredoxin, 1.5 ul (0.5 ug) Arabidopsis reductase [3] | change in A412 over 4 min, NADPH thioredoxin reductase DTNB assay; 30 ul (about 1.2 ug) wheat thioredoxin, 1.5 ul (0.5 ug) Arabidopsis reductase [3] | change in A412 over 4 min, NADPH thioredoxin reductase DTNB assay; 30 ul (about 15 ug) rice thioredoxin, 2.3 ug E. coli reductase [1] | change in A412 over 4 min, NADPH thioredoxin reductase DTNB assay; 30 ul (about 6 ug) soybean thioredoxin, 2.3 ug E. coli reductase [2] | change in A412 over 4 min, NADPH thioredoxin reductase DTNB assay; 30 ul (about 12 ug) soybean thioredoxin, 2.3 ug E. coli reductase [2] | change in A412 over 4 min, NADPH thioredoxin reductase DTNB assay; 30 ul (about 0.6 ug) wheat thioredoxin, 2.3 ug E. coli reductase [3]
Arabidopsis NADPH thioredoxin reductase without S-tag (recombinant, expressed in E. coli from pNOV4115) (from UniProt Q39243 43-375) (enzyme) | 0.66 A412 | 0.42 A412 | 0.08 A412 | 0.08 A412 |  |  |  | 
E. coli thioredoxin reductase (T-7915, Sigma, St. Louis, Mo.) (from UniProt P0A9P4 2-321) (enzyme) |  |  |  |  | 0.3 A412 | 0.2 A412 | 0.333 A412 | 0.3 A412
